Reference: patent publication US12194080B2, “Methods for identification, assessment, prevention, and treatment of metabolic disorders using PM20D1 and N-lipidated amino acids” (Dana-Farber Cancer Institute, Inc., priority 2015, dated 2025)
Entries after “also recorded” stand apart in the source; their conditions may differ.

What was measured:
APOA1 = assay: FLAG immunoprecipitation of PM20D1-flag from primary brown fat cells with mass spectrometry identification; type: binding, mouse
Text: The mass spectrometry identification of the indicated proteins (PM20D1 or APOA1) are indicated to the right of the gel.

mouse PM20D1 [1] = target: T1, mouse PM20D1 (Mus musculus, UniProt Q8C165); assay: In vitro PM20D1-catalyzed N-acyl amino acid hydrolysis; type: biochemical; conditions: PBS, 37° C., 1.5 h
T1 construct: Full-length mouse Pm20d1 cDNA (GE Dharmacon) was subcloned with an in-frame C-terminal 6× His and FLAG® tag; made in house; host or cells: 293A (HEK293A) cells stably infected with retrovirus
T1 sequence (Q8C165 25-503): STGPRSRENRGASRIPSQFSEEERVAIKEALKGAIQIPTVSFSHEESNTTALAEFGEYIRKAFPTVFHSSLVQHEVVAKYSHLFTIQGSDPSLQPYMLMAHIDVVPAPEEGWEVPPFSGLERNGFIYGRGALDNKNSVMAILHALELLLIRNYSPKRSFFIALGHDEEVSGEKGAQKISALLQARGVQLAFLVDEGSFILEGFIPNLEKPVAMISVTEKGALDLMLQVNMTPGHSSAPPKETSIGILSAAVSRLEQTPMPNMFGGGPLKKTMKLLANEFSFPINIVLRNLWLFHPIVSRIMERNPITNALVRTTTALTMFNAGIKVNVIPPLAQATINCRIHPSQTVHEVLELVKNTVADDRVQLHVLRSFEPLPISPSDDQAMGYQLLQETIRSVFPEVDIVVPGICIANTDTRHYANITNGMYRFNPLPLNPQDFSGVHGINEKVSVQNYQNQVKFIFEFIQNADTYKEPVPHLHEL
Method: (§1) The concentrated media was centrifuged to remove debris (600×g, 10 min, 4° C.) and the supernatant containing PM20D1-flag was decanted into a new tube. PM20D1-Flag was immunoaffinity purified overnight at 4° C. from the concentrated media using magnetic Flag-M2 beads (Sigma Aldrich). The beads were collected, washed three times in PBS, eluted with 3× Flag peptide ([…] in PBS, Sigma Aldrich), aliquoted, and stored at −80° C. For the purification of human PM20D1-flag, hPM20D1-flag plasmid (Origene) was transiently transfected into 293A cells. After two days, the media was changed, harvested 24 h later, concentrated, and purified exactly as described above.
(§2) In vitro PM20D1-catalyzed synthesis of N-acyl amino acids was measured by incubating purified PM20D1 protein with oleate (1.5 mM) and phenylalanine (0.1 mM) in PBS (to 100 μl final volume) at 37° C. for 1.5 hrs. In vitro PM20D1-catalyzed N-acyl amino acid hydrolysis was measured by incubating purified PM20D1 protein with the indicated N-acyl amino acid (0.1 mM) in PBS (to 100 μl final volume) at 37° C. for 1.5 hrs. Reactions were terminated by placing the vials at −80° C. and the products generated in vitro were analyzed by mass spectroscopy (MS).
(§3) Briefly, frozen serum (30 μl) for polar metabolomic analyses were extracted in 160 μl of 1:1 acetonitrile/methanol with inclusion of internal standard D3, ^15N-serine (1 nmol). Activity assays (100 μl) were extracted in 400 μl 1:1 acetonitrile/methanol. Following 30 s of thorough vortexing and 1 min of bath sonication, the polar metabolite fraction (supernatant) was isolated by centrifugation at 13,000×g for 10 min. Ten μl of this supernatant was analyzed by SRM-based targeted LC-MS/MS, or untargeted LC-MS.
(§4) For separation of polar metabolites, normal-phase chromatography was performed with a […] column (50 mm×4.60 mm, Phenomenex). Mobile phases were as follows: Buffer A, acetonitrile; Buffer B, 95:5 water/acetonitrile with 0.1% formic acid or 0.2% ammonium hydroxide with 50 mM ammonium acetate for positive and negative ionization mode, respectively. The flow rate for each run started at 0.2 ml/min for 2 min, followed by a gradient starting at 0% B and increasing linearly to 100% B over the course of 15 min with a flow rate of 0.7 ml/min, followed by an isocratic gradient of 100% B for 10 min at 0.7 ml/min before equilibrating for 5 min at 0% B with a flow rate of 0.7 ml/min. MS analysis was performed with an electrospray ionization (ESI) source on an Agilent 6430 QQQ LC—MS/MS. The capillary voltage was set to 3.5 kV, and the fragmentor voltage was set to 100 V. The drying gas temperature was 325° C., the drying gas flow rate was 10 l/min, and the nebulizer pressure was 45 psi. For polar targeted and untargeted metabolomic analysis, representative metabolites were quantified by SRM of the transition from precursor to product ions (corresponding to amino acid fragment) at associated collision energies. Several representative fragmentation ions are as follows: C18:1-Ala, 352>88; C18:1-Gly, 338>74; C18:1-Phe, 428>164; C18:1-Leu/Ile, 394>130; C20:4-Phe, 450>164; C20:4-Leu/Ile, 416>130. Untargeted LC-MS was performed by scanning a mass range of m/z 50-1200, and data were exported as mzdata files and uploaded to XCMSOnline (xcmsserver.nutr.berkeley.edu) to identify metabolites that were differentially changed. For targeted metabolomics analysis, metabolites were quantified by integrating the area under the peak and were normalized to internal standard values corresponding to 1 nmol D3, ^15N-serine.

mouse PM20D1 [2] = target: T1, mouse PM20D1; assay: In vitro PM20D1-catalyzed synthesis of N-acyl amino acids; type: biochemical; conditions: PBS, 37° C., 1.5 h
Method: as §1, §2, §3, §4

B1: PM20D1: purified recombinant C-terminal 6xHis/flag-tagged mouse peptidase M20 domain containing 1, a secreted enzyme (protein, listed as Homo sapiens)
chain: MAQRCVCVLALVAMLLLVFPTVSRSMGPRSGEHQRASRIPSQFSKEERVAMKEALKGAIQIPTVTFSSEKSNTTALAEFGKYIHKVFPTVVSTSFIQHEVVEEYSHLFTIQGSDPSLQPYLLMAHFDVVPAPEEGWEVPPFSGLERDGIIYGRGTLDDKNSVMALLQALELLLIRKYIPRRSFFISLGHDEESSGTGAQRISALLQSRGVQLAFIVDEGGFILDDFIPNFKKPIALIAVSEKGSMNLMLQVNMTSGHSSAPPKETSIGILAAAVSRLEQTPMPIIFGSGTVVTVLQQLANEFPFPVNIILSNPWLFEPLISRFMERNPLTNAIIRTTTALTIFKAGVKFNVIPPVAQATVNFRIHPGQTVQEVLELTKNIVADNRVQFHVLSAFDPLPVSPSDDKALGYQLLRQTVQSVFPEVNITAPVTSIGNTDSRFFTNLTTGIYRFYPIYIQPEDFKRIHGVNEKISVQAYETQVKFIFELIQNADTDQEPVSHLHKL
modifications: C-terminal 6xHis/flag tag
notes: purified recombinant C-terminal 6xHis/flag-tagged mouse peptidase M20 domain containing 1, a secreted enzyme
**Q.** With B1 as the molecule, how does the “interaction with apolipoprotein 1 (APOA1)” value (APOA1) read?
**A.** interacts with apolipoprotein 1 (APOA1)

**Q.** What about the “conversion in the hydrolase direction” value (mouse PM20D1 [1]; C18:1-Phe 100 μM, n=3) of the same molecule?
**A.** 94.0±0.8%

**Q.** And the “N-acyl amino acid hydrolase activity” value (mouse PM20D1 [1]; C18:1-Phe as substrate)?
**A.** possessed enzymatic activity

**Q.** What about the “conversion in the synthase direction” value (mouse PM20D1 [2]; oleate 1.5 mM, Phe 100 μM, n=3) of the same molecule?
**A.** 1.2±0.1%

**Q.** What about the “N-acyl amino acid synthase activity” value (mouse PM20D1 [2]; oleate and Phe as substrates) of the same molecule?
**A.** Significant formation of C18:1-Phe; also recorded: possessed enzymatic activity
